In the series the test system is T1, SbfI restriction endonuclease (R.SbfI) (Streptomyces species Bf-61).
T1 sequence: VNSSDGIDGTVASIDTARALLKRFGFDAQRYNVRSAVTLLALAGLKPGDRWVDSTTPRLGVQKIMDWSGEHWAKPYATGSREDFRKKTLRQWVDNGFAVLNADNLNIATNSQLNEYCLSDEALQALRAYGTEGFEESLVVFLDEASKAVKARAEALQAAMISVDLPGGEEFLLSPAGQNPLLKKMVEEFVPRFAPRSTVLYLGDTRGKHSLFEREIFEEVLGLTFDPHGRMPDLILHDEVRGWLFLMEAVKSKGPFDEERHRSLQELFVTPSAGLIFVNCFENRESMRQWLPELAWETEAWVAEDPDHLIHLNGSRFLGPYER
The series is described as follows: cleavage_in_vitro. As to conditions: recombinant cell extract, serial dilutions 1x to 1/64; yield more than about 10^5 units per gram wet E. coli cells; recognition sequence not given.

Take “lambda DNA (printed as "I DNA") restriction substrate”: the activity (U/g wet cells) was found to be 100000.

(Values after US20050064433.)
